Key:
[1] = target: Retron-Eco8 effector (OLD-family nuclease), untagged, of the Retron-Eco8^ATP construct (Escherichia coli); experiment: cryo-EM structure
[2] = target: Retron-Eco8 reverse transcriptase (RT) (Escherichia coli); experiment: cryo-EM structure

stoichiometry N [1]: 4
stoichiometry N (RT per effector (4:4)) [2]: 1
Substance: Retron-Eco8 effector (OLD-family nuclease), untagged, of the Retron-Eco8^ATP construct (enzyme)
